Results as given in FireProtDB (doi:10.1111/j.1399-3011.1982.tb00898.x).

Conditions: Escherichia coli (strain K12), Thermal, DSC, whole UniProt chain shown
[1] = pH 7, 25 °C, potassium phosphate 1 mM, reversible: yes(<50%)
[2] = pH 7, potassium phosphate 1 mM, reversible: yes(<50%)
[3] = pH 9.3, 25 °C, sodium tetraborate 1 mM, reversible: yes(>70%)
[4] = pH 9.3, sodium tetraborate 1 mM, reversible: yes(>70%)

B1: Tryptophan synthase alpha chain wild type, P0A877 (protein)
chain: MERYESLFAQLKERKEGAFVPFVTLGDPGIEQSLKIIDTLIEAGADALELGIPFSDPLADGPTIQNATLRAFAAGVTPAQCFEMLALIRQKHPTIPIGLLMYANLVFNKGIDEFYAQCEKVGVDSVLVADVPVEESAPFRQAALRHNVAPIFICPPNADDDLLRQIASYGRGYTYLLSRAGVTGAENRAALPLNHLVAKLKEYNAAPPLQGFGISAPDQVKAAIDAGAAGAISGSAIVKIIEQHINEPEKMLAALKVFVQPMKAATRS
heat capacity change of unfolding [1]: 2.9 kcal/mol/K
unfolding free energy [1]: 8.4 kcal/mol
Tm [2]: 62.4 °C
heat capacity change of unfolding [2]: 2.9 kcal/mol/K
heat capacity change of unfolding [3]: 2.9 kcal/mol/K
unfolding free energy [3]: 5.8 kcal/mol
Tm [4]: 54.3 °C
heat capacity change of unfolding [4]: 2.9 kcal/mol/K
